T1: recombinant RIM1 PDZ-domain (rat RIM1 residues 596-704) (rat, UniProt Q9JIR4 596-704, ^15N-labeled (for the HSQC spectra))
T1 sequence (looked up): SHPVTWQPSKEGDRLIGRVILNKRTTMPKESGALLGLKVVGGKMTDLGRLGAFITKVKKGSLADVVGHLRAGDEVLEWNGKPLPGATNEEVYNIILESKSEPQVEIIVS


How the values were obtained:
[1] = biological target: recombinant RIM1 PDZ-domain (rat RIM1 residues 596-704) (rat) (UniProt Q9JIR4); test: ITC
[2] = biological target: T1, recombinant RIM1 PDZ-domain (rat RIM1 …); test: ITC

| Kd [1] [µM] | stoichiometry N [1] | Kd [2] [µM] | stoichiometry N [2] | Molecule |
| --- | --- | --- | --- | --- |
| 23.4 | 0.93 | – | – | C-terminus of N-type Ca^2+-channels (tested by HSQC and calorimetry) (from UniProt Q00975 1-2339) (domain or fragment) |
| – | – | 10.3 ± 0.6 | 0.93 | RHDAYSESEDDWC [peptide from the C-terminus of the P/Q-type Ca^2+-channel (residues RHDAYSESEDDWC)] |
